{
  "source": "paper PMC12368639",
  "target": "Cluster of Differentiation 147 (CD147) (human)",
  "sequence (P35613 other isoform, or with tags, fused parts or gaps)": "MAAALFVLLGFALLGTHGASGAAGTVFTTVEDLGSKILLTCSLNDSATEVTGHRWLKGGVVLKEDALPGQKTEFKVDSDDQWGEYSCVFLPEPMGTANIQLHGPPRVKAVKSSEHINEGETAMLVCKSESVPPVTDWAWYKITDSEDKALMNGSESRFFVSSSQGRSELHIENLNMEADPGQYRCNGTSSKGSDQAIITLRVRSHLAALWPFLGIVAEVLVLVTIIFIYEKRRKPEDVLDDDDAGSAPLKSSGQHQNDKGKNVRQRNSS",
  "test": "single-molecule force spectroscopy (AFM)",
  "data": [
    {"substance": "Full length Spike Protein (SARS-CoV-2) (from UniProt P0DTC2) (natural protein)", "values": [
      {"measurement": "mean adhesion force", "value": 41.9, "unit": "pN"},
      {"measurement": "mean adhesion force (tip contact time 0 s)", "value": 38.8, "unit": "pN"},
      {"measurement": "mean adhesion force at 37 °C", "value": 46.2, "unit": "pN"}
    ]}
  ]
}
